The text below walks through data of US20150266967A1.

The target of this test is recombinant Fcγ-receptor 3a protein, high affinity V158 allotype (UniProt P08637). Kind of test: surface plasmon resonance, KD from ka and kd.
Chain of recombinant Fcγ-receptor 3a protein, high affinity V158 allotype (P08637 17-208 F176V): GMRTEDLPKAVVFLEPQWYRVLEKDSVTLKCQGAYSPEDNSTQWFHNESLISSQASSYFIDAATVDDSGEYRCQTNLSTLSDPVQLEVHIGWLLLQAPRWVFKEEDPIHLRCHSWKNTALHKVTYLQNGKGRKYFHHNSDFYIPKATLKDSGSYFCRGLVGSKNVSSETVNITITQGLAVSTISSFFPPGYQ

For “non Fc-engineered IgG1 reference antibody”, the Kd was determined as 379 nM.
